# Experimental data from article PMC8860611.
# Molecular target: HIV-1 CA A14C/E45C/W184A/M185A (pET11a-CA (A14C, E45C, W184A and M185A)), assembled into soluble cross-linked hexamers (HIV-1)
# Assay: cross-linking
substance,measurement,value
"HIV-1 CA A14C/E45C/W184A/M185A (pET11a-CA (A14C, E45C, W184A and M185A)), assembled into soluble cross-linked hexamers (natural protein)",stoichiometry N,6
